According to the supplement of paper PMC10126150:
± gives the standard deviation of the averaged measurements.

Tested on: ATP
Assay: switch fluorescence ratio, 500 uM ATP over buffer (Cy3 cluster intensity, sum of 5 cycles each) (fold (ratio)); higher = stronger signal-on switching upon ATP binding; sequences stand for … in TCGTCGGCAGCGTCAGATGTGTATAAGAGACAGTTTTTTTTTTTTTTTTTTTTTTTTT…TC
Conditions: aptamer strand: ATP DNA aptamer (quencher-CACCTGGGGGAGTATTGCGGAGGAAGG + anchor), 100 nM annealed; ATP concentration: 500 uM
Procedure, shortened: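 Switching-strand clusters labelled with Cy3 on a modified Illumina MiSeq flow-cell were annealed to 100 nM quencher-labelled ATP aptamer, imaged in selection buffer, and re-imaged after 15 min with 500 uM ATP at 22 °C. This was done over five cycles with NaOH stripping and re-annealing in between. The fluorescence ratio is summed target-cycle over summed buffer-cycle Cy3 intensity per cluster, averaged per switch-domain sequence, excluding clusters outside 100-1000 RFU.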
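Also: ATP exposure 15 min at 22 °C before imaging.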

## GGGTGTTGTC
  switch fluorescence ratio: 1.006 ± 0.01

## GGGTGTTTGT
  switch fluorescence ratio: 1 ± 0.018

## GGGTGTTTTG
  switch fluorescence ratio: 0.996 ± 0.013

## GGGTTAAAAC
  switch fluorescence ratio: 1.01 ± 0.043

## GGGTTAAACT
  switch fluorescence ratio: 0.987 ± 0.023

## GGGTTAGGGG
  switch fluorescence ratio: 1.01 ± 0.04

## GGGTTATAGG
  switch fluorescence ratio: 0.978 ± 0.025

## GGGTTATGCT
  switch fluorescence ratio: 0.99 ± 0.046

## GGGTTCAGAG
  switch fluorescence ratio: 1 ± 0.042

## GGGTTCCTAG
  switch fluorescence ratio: 1.01 ± 0.041

## GGGTTCTCTC
  switch fluorescence ratio: 0.98 ± 0.011

## GGGTTCTTTG
  switch fluorescence ratio: 1.03 ± 0.064

## GGGTTGACCC
  switch fluorescence ratio: 0.993 ± 0.024

## GGGTTGACGC
  switch fluorescence ratio: 1.01 ± 0.013

## GGGTTGCTAC
  switch fluorescence ratio: 1.02 ± 0.017

## GGGTTGGCTA
  switch fluorescence ratio: 0.964 ± 0.047

## GGGTTGGCTG
  switch fluorescence ratio: 0.989 ± 0.048

## GGGTTGGGGG
  switch fluorescence ratio: 1 ± 0.032

## GGGTTGGGGT
  switch fluorescence ratio: 0.997 ± 0.041

## GGGTTGTATG
  switch fluorescence ratio: 0.997 ± 0.038

## GGGTTGTCCG
  switch fluorescence ratio: 1.05 ± 0.07

## GGGTTGTCGT
  switch fluorescence ratio: 1.01 ± 0.062

## GGGTTGTGAT
  switch fluorescence ratio: 0.984 ± 0.014

## GGGTTTAAGT
  switch fluorescence ratio: 0.986 ± 0.023

## GGGTTTAATC
  switch fluorescence ratio: 1.08 ± 0.077

## GGGTTTACCT
  switch fluorescence ratio: 1.05 ± 0.051

## GGGTTTAGCG
  switch fluorescence ratio: 1.014 ± 0.0022

## GGGTTTAGGG
  switch fluorescence ratio: 1 ± 0.045

## GGGTTTATGA
  switch fluorescence ratio: 0.98 ± 0.04

## GGGTTTCACG
  switch fluorescence ratio: 0.983 ± 0.023

## GGGTTTGAGC
  switch fluorescence ratio: 0.981 ± 0.033

## GGGTTTGGCT
  switch fluorescence ratio: 1.01 ± 0.029

## GGGTTTGTTA
  switch fluorescence ratio: 1 ± 0.018

## GGGTTTGTTT
  switch fluorescence ratio: 1.02 ± 0.046

## GGGTTTTATC
  switch fluorescence ratio: 0.999 ± 0.035

## GGGTTTTCGG
  switch fluorescence ratio: 0.987 ± 0.026

## GGGTTTTGGA
  switch fluorescence ratio: 0.998 ± 0.039

## GGGTTTTTAG
  switch fluorescence ratio: 0.994 ± 0.033

## GGTAAACGGA
  switch fluorescence ratio: 1.02 ± 0.044

## GGTAAAGGGG
  switch fluorescence ratio: 0.991 ± 0.058

## GGTAAATTTT
  switch fluorescence ratio: 1 ± 0.018

## GGTAACATTT
  switch fluorescence ratio: 1.061 ± 0.0053

## GGTAACGGGG
  switch fluorescence ratio: 1.06 ± 0.065

## GGTAACTTGG
  switch fluorescence ratio: 1.01 ± 0.034

## GGTAATATTA
  switch fluorescence ratio: 1.07 ± 0.051

## GGTAATTGTG
  switch fluorescence ratio: 0.987 ± 0.016

## GGTAATTGTT
  switch fluorescence ratio: 0.998 ± 0.025

## GGTACATGGG
  switch fluorescence ratio: 0.975 ± 0.021

## GGTACGAAAG
  switch fluorescence ratio: 1.01 ± 0.026

## GGTACGATGG
  switch fluorescence ratio: 1.01 ± 0.015

## GGTACTATAG
  switch fluorescence ratio: 1.034 ± 0.0066

## GGTACTCGTA
  switch fluorescence ratio: 1.01 ± 0.039

## GGTACTTCGA
  switch fluorescence ratio: 0.9938 ± 0.0015

## GGTAGATATG
  switch fluorescence ratio: 1.021 ± 0.0078

## GGTAGATCGG
  switch fluorescence ratio: 1.004 ± 0.0061

## GGTAGGAACC
  switch fluorescence ratio: 1.01 ± 0.021

## GGTAGGCCTG
  switch fluorescence ratio: 0.989 ± 0.056

## GGTAGGCGGG
  switch fluorescence ratio: 0.959 ± 0.018

## GGTAGGCTGC
  switch fluorescence ratio: 0.986 ± 0.018

## GGTAGGGGCG
  switch fluorescence ratio: 1.03 ± 0.031

## GGTAGGGGTA
  switch fluorescence ratio: 1.03 ± 0.084

## GGTAGGGGTC
  switch fluorescence ratio: 1.01 ± 0.056

## GGTAGGGGTG
  switch fluorescence ratio: 1.07 ± 0.033

## GGTAGTGGGA
  switch fluorescence ratio: 1 ± 0.046

## GGTAGTGGGG
  switch fluorescence ratio: 0.987 ± 0.021

## GGTATAAATT
  switch fluorescence ratio: 0.939 ± 0.011

## GGTATAAGAT
  switch fluorescence ratio: 1.01 ± 0.013

## GGTATACTGA
  switch fluorescence ratio: 1.05 ± 0.049

## GGTATAGGGG
  switch fluorescence ratio: 0.995 ± 0.054

## GGTATAGGTC
  switch fluorescence ratio: 1.05 ± 0.011

## GGTATATATG
  switch fluorescence ratio: 0.995 ± 0.055

## GGTATATCTG
  switch fluorescence ratio: 1.01 ± 0.039

## GGTATATGTG
  switch fluorescence ratio: 1 ± 0.025

## GGTATCACCT
  switch fluorescence ratio: 1.04 ± 0.034

## GGTATCTCGA
  switch fluorescence ratio: 1.03 ± 0.044

## GGTATCTGAT
  switch fluorescence ratio: 1.03 ± 0.02

## GGTATGGAGG
  switch fluorescence ratio: 0.988 ± 0.038

## GGTATGGCGA
  switch fluorescence ratio: 0.939 ± 0.048

## GGTATGTAGG
  switch fluorescence ratio: 0.978 ± 0.012

## GGTATTATAT
  switch fluorescence ratio: 0.98 ± 0.038

## GGTATTATGG
  switch fluorescence ratio: 1 ± 0.029

## GGTATTCGGC
  switch fluorescence ratio: 1.01 ± 0.017

## GGTATTCTGT
  switch fluorescence ratio: 0.951 ± 0.03

## GGTATTGGAG
  switch fluorescence ratio: 0.984 ± 0.015

## GGTATTGGTA
  switch fluorescence ratio: 1.13 ± 0.25

## GGTATTGTTG
  switch fluorescence ratio: 1 ± 0.024

## GGTATTTTAA
  switch fluorescence ratio: 1.04 ± 0.027

## GGTCAAACCC
  switch fluorescence ratio: 1.032 ± 0.0044

## GGTCAAGCTC
  switch fluorescence ratio: 1.02 ± 0.02

## GGTCAAGGCC
  switch fluorescence ratio: 0.999 ± 0.041

## GGTCAAGTGG
  switch fluorescence ratio: 1 ± 0.02

## GGTCAAGTTG
  switch fluorescence ratio: 0.961 ± 0.019

## GGTCAGGGGA
  switch fluorescence ratio: 0.988 ± 0.04

## GGTCATAGGG
  switch fluorescence ratio: 0.958 ± 0.022

## GGTCATGCGG
  switch fluorescence ratio: 1.01 ± 0.021

## GGTCCAAAAG
  switch fluorescence ratio: 1.008 ± 0.0075

## GGTCCAGGAT
  switch fluorescence ratio: 1.018 ± 0.0068

## GGTCCATACG
  switch fluorescence ratio: 1.01 ± 0.025

## GGTCCCAAAA
  switch fluorescence ratio: 0.981 ± 0.032

## GGTCCCCAAT
  switch fluorescence ratio: 1 ± 0.013
